First the molecules themselves.
T1: TPBG-His (UniProt Q13641 32-355, limits assumed)
T1 construct: probably the human protein, the same as m24; also called TPBG-His antigen; TPBG-His protein; not shown: His tag
T1 sequence (looked up): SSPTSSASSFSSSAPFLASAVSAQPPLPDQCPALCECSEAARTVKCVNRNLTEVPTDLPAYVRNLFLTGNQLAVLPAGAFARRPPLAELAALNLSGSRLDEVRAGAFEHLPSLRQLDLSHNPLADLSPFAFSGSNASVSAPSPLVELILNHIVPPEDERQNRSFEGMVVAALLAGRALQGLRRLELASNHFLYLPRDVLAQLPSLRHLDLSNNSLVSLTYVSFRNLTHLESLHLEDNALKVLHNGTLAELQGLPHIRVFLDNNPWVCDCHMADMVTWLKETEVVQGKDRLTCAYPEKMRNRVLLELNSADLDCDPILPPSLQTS

B1: hB5-2-12 (antibody, human IgG1, kappa)
heavy: not shown
light: DIQMTQSPSSLSASVGDRVTISCRASQDISNYLNWYQQKPGKAPKLLIYHTSILHSGVPSRFSGSGSGTDYSLTISSLQPEDFATYFCQQGDTVPLTFGGGTKVEIKRTVAAPSVFIFPPSDEQLKSGTASVVCLLNNFYPREAKVQWKVDNALQSGNSQESVTEQDSKDSTYSLSSTLTLSKADYEKHKVYACEVTHQGLSSPVTKSFNRGEC
notes: Humanized IgG1 kappa
B2: hB5-2-17 (antibody, human IgG1, kappa)
heavy: not shown
light: DIQMTQSPSSLSASVGDRVTISCRASQDISNYLNWYQQKPGKAPKLLIYHTSILHSGVPSRFSGSGSGTDYSLTISSLQPEDIATYFCQQGDTVPLTFGGGTKVEIKRTVAAPSVFIFPPSDEQLKSGTASVVCLLNNFYPREAKVQWKVDNALQSGNSQESVTEQDSKDSTYSLSSTLTLSKADYEKHKVYACEVTHQGLSSPVTKSFNRGEC
notes: Humanized IgG1 kappa
B3: hB5-2-1 (antibody, human IgG1, kappa, V domains shown)
VH: EVQLVESGGGLVQPGGSLRLSCAASGFTFRNYAMSWVRQAPGKGLEWVAEISTGGSYTYYPDTVTGRFTISRDNAKNSLYLQMNSLRAEDTAVYYCAFYYYGSSYSMDYWGQGTLVTVSS
VL: DIQMTQSPSSLSASVGDRVTISCRASQDISNYLNWYQQKPGKAPKLLIYHTSILHSGVPSRFSGSGSGTDYSLTISSLQPEDIATYFCQQGDTVPLTFGGGTKVEIKR
notes: Humanized IgG1 kappa
B4: hB5-2-13 (antibody, human IgG1, kappa, V domains shown)
VH: EVQLVESGGGVVQPGRSLRLSCAASGFTFRNYAMSWVRQAPGKGLEWVAEISTGGSYTYYPDTVTGRFTISRDNSKNTLYLQMSSLRAEDTAVYYCAFYYYGSSYSMDYWGQGTLVTVSS
VL: DIQMTQSPSSLSASVGDRVTISCRASQDISNYLNWYQQKPGKAPKLLIYHTSILHSGVPSRFSGSGSGTDYSLTISSLQPEDIATYFCQQGDTVPLTFGGGTKVEIKR
notes: Humanized IgG1 kappa
B5: hB5-2-6 (antibody, human IgG1, kappa, V domains shown)
VH: EVQLVESGGGLVQPGGSLRLSCAASGFTFRNYAMSWVRQAPGKGLEWVAEISTGGSYTYYPDTVTGRFTISRDNSKNTLYLQMNSLRAEDTAVYYCAFYYYGSSYSMDYWGQGTLVTVSS
VL: DIQMTQSPSSLSASVGDRVTISCRASQDISNYLNWYQQKPGKVPKLLIYHTSILHSGVPSRFSGSGSGTDYSLTISSLQPEDVATYFCQQGDTVPLTFGGGTKVEIKR
notes: Humanized IgG1 kappa
B6: hB5-2-18 (antibody, human IgG1, kappa)
heavy: not shown
light: DIQMTQSPSSLSASVGDRVTISCRASQDISNYLNWYQQKPGKVPKLLIYHTSILHSGVPSRFSGSGSGTDYSLTISSLQPEDVATYFCQQGDTVPLTFGGGTKVEIKRTVAAPSVFIFPPSDEQLKSGTASVVCLLNNFYPREAKVQWKVDNALQSGNSQESVTEQDSKDSTYSLSSTLTLSKADYEKHKVYACEVTHQGLSSPVTKSFNRGEC
notes: Humanized IgG1 kappa
B7: hB5-2-11 (antibody, human IgG1, kappa)
heavy: not shown
light: DIQMTQTTSSLSASVGDRVTISCRASQDISNYLNWFQQKPGKAPKSLIYHTSILHSGVPSKFSGSGSGTDYSLTISSLQPEDFATYFCQQGDTVPLTFGGGTKVEIKRTVAAPSVFIFPPSDEQLKSGTASVVCLLNNFYPREAKVQWKVDNALQSGNSQESVTEQDSKDSTYSLSSTLTLSKADYEKHKVYACEVTHQGLSSPVTKSFNRGEC
notes: Humanized IgG1 kappa
B8: hB5-2-14 (antibody, human IgG1, kappa, V domains shown)
VH: EVQLVESGGGVVQPGRSLRLSCAASGFTFRNYAMSWVRQAPGKGLEWVAEISTGGSYTYYPDTVTGRFTISRDNSKNTLYLQMSSLRAEDTAVYYCAFYYYGSSYSMDYWGQGTLVTVSS
VL: DIQMTQSPSSLSASVGDRVTISCRASQDISNYLNWYQQKPGKVPKLLIYHTSILHSGVPSRFSGSGSGTDYSLTISSLQPEDVATYFCQQGDTVPLTFGGGTKVEIKR
notes: Humanized IgG1 kappa
B9: hB5-2-5 (antibody, human IgG1, kappa, V domains shown)
VH: EVQLVESGGGLVQPGGSLRLSCAASGFTFRNYAMSWVRQAPGKGLEWVAEISTGGSYTYYPDTVTGRFTISRDNSKNTLYLQMNSLRAEDTAVYYCAFYYYGSSYSMDYWGQGTLVTVSS
VL: DIQMTQSPSSLSASVGDRVTISCRASQDISNYLNWYQQKPGKAPKLLIYHTSILHSGVPSRFSGSGSGTDYSLTISSLQPEDIATYFCQQGDTVPLTFGGGTKVEIKR
notes: Humanized IgG1 kappa
B10: hB5-2-4 (antibody, human IgG1, kappa, V domains shown)
VH: EVQLVESGGGLVQPGGSLRLSCAASGFTFRNYAMSWVRQAPGKGLEWVAEISTGGSYTYYPDTVTGRFTISRDNAKNSLYLQMNSLRAEDTAVYYCAFYYYGSSYSMDYWGQGTLVTVSS
VL: DIQMTQSPSSLSASVGDRVTISCRASQDISNYLNWYQQKPGKAPKLLIYHTSILHSGVPSRFSGSGSGTDYSLTISSLQPEDFATYFCQQGDTVPLTFGGGTKVEIKR
notes: Humanized IgG1 kappa
B11: hB5-2-7 (antibody, human IgG1, kappa, V domains shown)
VH: EVQLVESGGGLVQPGGSLRLSCAASGFTFRNYAMSWVRQAPGKGLEWVAEISTGGSYTYYPDTVTGRFTISRDNSKNTLYLQMNSLRAEDTAVYYCAFYYYGSSYSMDYWGQGTLVTVSS
VL: DIQMTQTTSSLSASVGDRVTISCRASQDISNYLNWFQQKPGKAPKSLIYHTSILHSGVPSKFSGSGSGTDYSLTISSLQPEDFATYFCQQGDTVPLTFGGGTKVEIKR
notes: Humanized IgG1 kappa
B12: hB5-2-9 (antibody, human IgG1, kappa)
heavy: not shown
light: DIQMTQSPSSLSASVGDRVTISCRASQDISNYLNWYQQKPGKAPKLLIYHTSILHSGVPSRFSGSGSGTDYSLTISSLQPEDIATYFCQQGDTVPLTFGGGTKVEIKRTVAAPSVFIFPPSDEQLKSGTASVVCLLNNFYPREAKVQWKVDNALQSGNSQESVTEQDSKDSTYSLSSTLTLSKADYEKHKVYACEVTHQGLSSPVTKSFNRGEC
notes: Humanized IgG1 kappa
B13: hB5-2-3 (antibody, human IgG1, kappa, V domains shown)
VH: EVQLVESGGGLVQPGGSLRLSCAASGFTFRNYAMSWVRQAPGKGLEWVAEISTGGSYTYYPDTVTGRFTISRDNAKNSLYLQMNSLRAEDTAVYYCAFYYYGSSYSMDYWGQGTLVTVSS
VL: DIQMTQTTSSLSASVGDRVTISCRASQDISNYLNWFQQKPGKAPKSLIYHTSILHSGVPSKFSGSGSGTDYSLTISSLQPEDFATYFCQQGDTVPLTFGGGTKVEIKR
notes: Humanized IgG1 kappa
B14: hB5-2-2 (antibody, human IgG1, kappa, V domains shown)
VH: EVQLVESGGGLVQPGGSLRLSCAASGFTFRNYAMSWVRQAPGKGLEWVAEISTGGSYTYYPDTVTGRFTISRDNAKNSLYLQMNSLRAEDTAVYYCAFYYYGSSYSMDYWGQGTLVTVSS
VL: DIQMTQSPSSLSASVGDRVTISCRASQDISNYLNWYQQKPGKVPKLLIYHTSILHSGVPSRFSGSGSGTDYSLTISSLQPEDVATYFCQQGDTVPLTFGGGTKVEIKR
notes: Humanized IgG1 kappa
B15: hB5-2-16 (antibody, human IgG1, kappa, V domains shown)
VH: EVQLVESGGGVVQPGRSLRLSCAASGFTFRNYAMSWVRQAPGKGLEWVAEISTGGSYTYYPDTVTGRFTISRDNSKNTLYLQMSSLRAEDTAVYYCAFYYYGSSYSMDYWGQGTLVTVSS
VL: DIQMTQSPSSLSASVGDRVTISCRASQDISNYLNWYQQKPGKAPKLLIYHTSILHSGVPSRFSGSGSGTDYSLTISSLQPEDFATYFCQQGDTVPLTFGGGTKVEIKR
notes: Humanized IgG1 kappa
B16: hB5-2-8 (antibody, human IgG1, kappa, V domains shown)
VH: EVQLVESGGGLVQPGGSLRLSCAASGFTFRNYAMSWVRQAPGKGLEWVAEISTGGSYTYYPDTVTGRFTISRDNSKNTLYLQMNSLRAEDTAVYYCAFYYYGSSYSMDYWGQGTLVTVSS
VL: DIQMTQSPSSLSASVGDRVTISCRASQDISNYLNWYQQKPGKAPKLLIYHTSILHSGVPSRFSGSGSGTDYSLTISSLQPEDFATYFCQQGDTVPLTFGGGTKVEIKR
notes: Humanized IgG1 kappa
B17: hB5-2-15 (antibody, human IgG1, kappa, V domains shown)
VH: EVQLVESGGGVVQPGRSLRLSCAASGFTFRNYAMSWVRQAPGKGLEWVAEISTGGSYTYYPDTVTGRFTISRDNSKNTLYLQMSSLRAEDTAVYYCAFYYYGSSYSMDYWGQGTLVTVSS
VL: DIQMTQTTSSLSASVGDRVTISCRASQDISNYLNWFQQKPGKAPKSLIYHTSILHSGVPSKFSGSGSGTDYSLTISSLQPEDFATYFCQQGDTVPLTFGGGTKVEIKR
notes: Humanized IgG1 kappa

The assay concerns the target T1, TPBG-His. The experiment in a line: SPR (Biacore 8K), antibody captured on anti-human antibody CM5 chip, TPBG-His 300 nM, 1:1 model.
The molecule B1 came in with a Kd of 0.785 nM, a koff of 0.000298 s⁻¹ and a kon of 380000 M⁻¹ s⁻¹.

Consider B2, for which the affinity, expressed as Kd, was 0.902 nM; the koff was 0.000317 s⁻¹; the on-rate constant (kon) stood at 351000 M⁻¹ s⁻¹.

B3 had a Kd of 1.11 nM, a dissociation rate constant (koff) of 0.000388 s⁻¹ and a kon of 351000 M⁻¹ s⁻¹.

Consider B4, for which the equilibrium dissociation constant (Kd) was 0.721 nM, the dissociation rate constant (koff) turned out to be 0.000313 s⁻¹ and the kon was 434000 M⁻¹ s⁻¹.

As for B5, the affinity, expressed as Kd, was 1.53 nM; the koff is 0.000497 s⁻¹; the kon is 326000 M⁻¹ s⁻¹.

B6 had a Kd of 2.07 nM, a koff of 0.00061 s⁻¹ and an on-rate constant (kon) of 294000 M⁻¹ s⁻¹.

Turning to B7, the dissociation constant (Kd) was 1.39 nM, the koff worked out at 0.000431 s⁻¹ and the kon is 310000 M⁻¹ s⁻¹.

With B8, binding was characterised by a dissociation constant (Kd) of 1.74 nM, the koff was 0.000774 s⁻¹ and the kon was 445000 M⁻¹ s⁻¹.

Regarding B9, binding was put at a Kd of 0.827 nM, the dissociation rate constant (koff) came to 0.000279 s⁻¹ and the on-rate (kon) was 337000 M⁻¹ s⁻¹.

As for B10, the Kd came out at 0.845 nM, the koff was found to be 0.000298 s⁻¹ and the kon was determined as 353000 M⁻¹ s⁻¹.

In the case of B11, the dissociation constant Kd is 0.869 nM, the koff came out at 0.000342 s⁻¹ and the on-rate (kon) was 393000 M⁻¹ s⁻¹.

In turn, B12 returned a Kd of 0.927 nM, a koff of 0.000278 s⁻¹ and an on-rate (kon) of 299000 M⁻¹ s⁻¹.

Molecule B13 gave a dissociation constant (Kd) of 1.87 nM, an off-rate constant (koff) of 0.000681 s⁻¹ and a kon of 364000 M⁻¹ s⁻¹.

The molecule B14 came in with a dissociation constant Kd of 2.36 nM, a koff of 0.000527 s⁻¹ and an on-rate constant (kon) of 223000 M⁻¹ s⁻¹.

In turn, B15 yielded a dissociation constant (Kd) of 0.634 nM, a koff of 0.000347 s⁻¹ and an on-rate (kon) of 547000 M⁻¹ s⁻¹.

B16 showed an equilibrium dissociation constant (Kd) of 0.95 nM, a koff of 0.000302 s⁻¹ and an association rate constant (kon) of 318000 M⁻¹ s⁻¹.

The molecule B17 gave a dissociation constant (Kd) of 1.95 nM, a dissociation rate constant (koff) of 0.000632 s⁻¹ and a kon of 324000 M⁻¹ s⁻¹.

These data come from patent EP4692126A1 (Sound Biopharmaceuticals Co. Ltd., dated 2026).
